{"source": "patent US20130171217A1", "about": "“ENZYMATIC PERACID GENERATION FOR USE IN SKIN CARE PRODUCTS” (E I DU PONT DE NEMOURS AND COMPANY, priority 2010, published 2013)", "molecules": {"B1": {"name": "C277S-HC263: C277S variant of Thermotoga maritima perhydrolase fused via a flexible linker to hair-binding domain HC263 (protein)", "chain": "MAFFDLPLEELKKYRPERYEEKDFDEFWEETLAESEKFPLDPVFERMESHLKTVEAYDVTFSGYRGQRIKGWLLVPKLEEEKLPCVVQYIGYNGGRGFPHDWLFWPSMGYICFVMDTRGQGSGWLKGDTPDYPEGPVDPQYPGFMTRGILDPRTYYYRRVFTDAVRAVEAAASFPQVDQERIVIAGGSQGGGIALAVSALSKKAKALLCDVPFLCHFRRAVQLVDTHPYAEITNFLKTHRDKEEIVFRTLSYFDGVNFAARAKIPALFSVGLMDNISPPSTVFAAYNYYAGPKEIRIYPYNNHEGGGSFQAVEQVKFLKKLFEKGGPGSGGAGSPGSAGGPGSPSAQSQLPDKHSGLHERAPQRYGPEPEPEPEPIPEPPKEAPVVIEKPKPKPKPKPKPPAHDHKNQKETHQRHAAGSGGGGSPHHHHHH"}}, "key": {"[1]": {"experiment": "Two-step treatment of hair tresses, color loss ΔE", "details": "2500 μg/mL (E/H 10), 20 min/cycle, 1 cycle"}, "[2]": {"experiment": "Two-step treatment of hair tresses, color loss ΔE", "details": "for Color loss ΔE: 0.75 M H2O2, 1 M TA; for ΔE of color loss: 2500 μg/mL", "description": "After every fourth cycle the tresses were dried under air and color measurements were made using X-RITE® SP64 spectrophotometer (X-Rite, Grandville, Mich.) with 4 mm port. Color numbers were measured at D65/10° from reflectance, according to CIELAB76. Hair tresses (all 4 replicates) were placed under a card paper with punched out holes, making sure that the background was not visible. The port-hole of the spectrophotometer was centered on the hole to scan the hair sample underneath. The tress-bundle was turned over and placed under the card and an additional measurement was made. Average L*, a*, b* (color according to CIELAB76) values were recorded.\nΔE of color loss was calculated according to the following formula:\nΔE=√{square root over (((L1*−L0)̂2+(a1*−a0)̂2+(b1*−b0)̂2))}{square root over (((L1*−L0)̂2+(a1*−a0)̂2+(b1*−b0)̂2))}{square root over (((L1*−L0)̂2+(a1*−a0)̂2+(b1*−b0)̂2))}\nL1*, a1* and b1* are L*, a* and b* values for a sample tress after treatment, L0*, a0* and b0* are L*, a* and b* values for untreated hair"}, "[3]": {"experiment": "One-step procedure on hair tresses, tress tensile strength", "details": "for hair tensile strength: pH 6.6, 10 μg/mL enzyme", "description": "COM-TEN® Tensile Tester 95-VD (Com-Ten Industries, Pinellas Park, Fla.), fitted with a 100 lb. (˜45.4 kg) load-cell was used for tensile tests. In order to reduce sample slippage, 5 mm wide strips of industrial grade VELCRO® (Velcro USA, Manchester, N.H.) were attached to the inside edges of the clamps. Before testing the CALIBRATION was set to “off”, FORCE UNITS were set to “grams” and the distance between the clamps was adjusted to 3 cm. The test sample was soaked in water for 30 seconds. Excess moisture was removed by gentle absorption on a paper towel, leaving enough moisture in hair for it to qualify as being at 100% humidity level. The glued edges of the test sample were clamped at both upper and lower clamps in such a way that the VELCRO® strips held the hair just below the glue. Tester speed was set to ˜2.5 inches by adjusting the speed control knob. With the Force meter in RUN mode, TARE was set to ZERO to set the starting PEAK FORCE to 0. To start the test the DIRECTION toggle switch was pressed to UP position. At the conclusion of the test, when the sample failed, the DIRECTION switch was moved to STOP and the peak force was recorded. The hair was cut off along the edge of the clamps at both lower and upper clamps. The clamps were opened and the stubs were removed, dried in air and weighed. The difference in original sample weight and combined weights of the stubs was the weight of the hair undergoing tensile elongation, and this quantity was used to calculate the tensile strength.\nTensile Strength (N/mg hair)=Peak force (Newtons)/(Initial sample weight−weight of stubs)\nThe hair tresses in these examples were cut from the stock medium brown hair swatches that were custom made by International Hair Importers (Glendale, N.Y.). Each hair tress was glued at one end, and cut at 5 mm width and 4 cm long (excluding the glued portion), with 100+/−20 mg net hair weight. For each test condition, triplicates of hair tresses were used. In the one-step procedure, each hair tress was placed in a clean plastic weighing tray (VWR, Cat. #12577-053), then 1 mL of the perhydrolase HC1121 solution in a buffer was applied to the hair tress, and was rubbed into the hair tress with an applicator. Then calculated amount of triacetin and 30% H2O2 were applied onto each hair tress and rubbed into the hair tress which gave 200 mM triacetin and 100 mM H2O2. The hair tress sat in this reaction mixture for 30 min, before being washed thoroughly with tap water followed by paper towel dry. This completed a 30 min treatment cycle. The treatment cycle was repeated 16 times. Hair tress became lighter-colored and weakened during the treatment. After final rinse and air-drying, tensile strength tests as described in Example 25 were conducted on each hair tress to quantify hair weakening. In addition, L*, a*, b* color measurements were taken for each hair sample to quantify hair color loss, and L*, a*, b* color measurements were also taken for untreated hair as a reference for ΔE color difference calculations. ΔE was calculated in the standard way as ΔE=((L*−L*ref)^2+(a*−a*ref)^2+(b*−b*ref)^2)^0.5. […] At pH 6, when 30 μg/mL HC1121 was used which gave 0.3 μg/mg hair E/H ratio, the tensile strength of treated hair tress reduced to 1.9 N/mg hair, approaching 1.5 N/mg hair, the benchmark strength of hair treated with NAIR® cream for 5 min. At pH 7, when 30 μg/mL HC1121 was used, the tensile strength of treated hair tress was 0.3 N/mg hair, much less than the 1.5 N/mg hair benchmark. Therefore, proper concentration of enzyme at proper pH could weaken hair effectively. The measured hair color loss for treated hair tresses correlated well with the weakening of hair: the greater hair weakening, the greater hair color loss. […]"}, "[4]": {"details": "10 μg/mL HC1121, pH 6.6, 50 mM phosphate, 200 mM TA/100 mM H2O2, 24 hr/cycle, 8 cycles"}, "[5]": {"details": "10 μg/mL HC1121, pH 6.6, 50 mM phosphate, 200 mM TA/200 mM H2O2, 24 hr/cycle, 8 cycles"}, "[6]": {"details": "10 μg/mL HC1121, pH 6.6, 50 mM phosphate, 200 mM TA/300 mM H2O2, 24 hr/cycle, 8 cycles"}, "[7]": {"details": "10 μg/mL HC1121, pH 6.6, 50 mM phosphate, 200 mM TA/500 mM H2O2, 24 hr/cycle, 8 cycles"}, "[8]": {"details": "10 μg/mL HC1121, pH 6.6, 50 mM phosphate, 500 mM TA/500 mM H2O2, 24 hr/cycle, 8 cycles"}, "[9]": {"details": "one-step, 30 μg/mL enzyme, pH 6, 30 min × 16, listed as HC1121"}, "[10]": {"details": "one-step, 30 μg/mL enzyme, pH 7, 30 min × 16, listed as HC1121"}, "[11]": {"details": "one-step, pH 6.6, 50 mM buffer, 30 min/cycle X 16 cycles, SLES wash each cycle"}, "[12]": {"details": "one-step, pH 6.6, 50 mM buffer, 24 hr/cycle X 7 cycles, SLES wash each cycle"}, "[13]": {"details": "one-step, pH 6.6, 100 mM buffer, 30 min/cycle X 16 cycles, SLES wash each cycle"}}, "note": "Where “and” joins values, the source holds several entries; their conditions need not be identical. Equal entries are not always repeated."}
{"molecule": "B1", "values": [{"measurement": "ΔE of color loss", "setting": "[1]", "value": 2}, {"measurement": "Color loss ΔE", "setting": "[2]; 750 μg/mL (E/H 3), 40 min/cycle", "value": 8}, {"measurement": "Color loss ΔE", "setting": "[2]; 1500 μg/mL (E/H 5), 20 min/cycle", "value": 7}, {"measurement": "Color loss ΔE", "setting": "[2]; 1750 μg/mL (E/H 7), 40 min/cycle", "value": 10}, {"measurement": "Color loss ΔE", "setting": "[2]; 2500 μg/mL (E/H 10), 20 min/cycle", "value": 10}, {"measurement": "Color loss ΔE", "setting": "[2]; 2500 μg/mL (E/H 10), 40 min/cycle", "value": 9}, {"measurement": "ΔE of color loss", "setting": "[2]; 4 cycles", "value": 4}, {"measurement": "ΔE of color loss", "setting": "[2]; 8 cycles", "value": 6}, {"measurement": "ΔE of color loss", "setting": "[2]; 12 cycles", "value": 8}, {"measurement": "ΔE of color loss", "setting": "[2]; 16 cycles", "value": 11}, {"measurement": "Strength N/mg Hair, average", "setting": "[3]; [4]", "value": 1.19, "unit": "N/mg Hair"}, {"measurement": "Strength N/mg Hair, replicate1", "setting": "[3]; [4]", "value": 1.08, "unit": "N/mg Hair"}, {"measurement": "Strength N/mg Hair, replicate2", "setting": "[3]; [4]", "value": 1.40, "unit": "N/mg Hair"}, {"measurement": "Strength N/mg Hair, replicate3", "setting": "[3]; [4]", "value": 1.09, "unit": "N/mg Hair"}, {"measurement": "Strength N/mg Hair, average", "setting": "[3]; [5]", "value": 0.86, "unit": "N/mg Hair"}, {"measurement": "Strength N/mg Hair, replicate3", "setting": "[3]; [5]", "value": 0.99, "unit": "N/mg Hair"}, {"measurement": "Strength N/mg Hair, average", "setting": "[3]; [6]", "value": 0.55, "unit": "N/mg Hair"}, {"measurement": "Strength N/mg Hair, replicate1", "setting": "[3]; [6]", "value": 0.58, "unit": "N/mg Hair"}, {"measurement": "Strength N/mg Hair, replicate2", "setting": "[3]; [6]", "value": 0.50, "unit": "N/mg Hair"}, {"measurement": "Strength N/mg Hair, replicate3", "setting": "[3]; [6]", "value": 0.57, "unit": "N/mg Hair"}, {"measurement": "Strength N/mg Hair, average", "setting": "[3]; [7]", "value": 0.45, "unit": "N/mg Hair"}, {"measurement": "Strength N/mg Hair, replicate1", "setting": "[3]; [7]", "value": 0.39, "unit": "N/mg Hair"}, {"measurement": "Strength N/mg Hair, replicate2", "setting": "[3]; [7]", "value": 0.38, "unit": "N/mg Hair"}, {"measurement": "Strength N/mg Hair, replicate3", "setting": "[3]; [7]", "value": 0.58, "unit": "N/mg Hair"}, {"measurement": "Strength N/mg Hair, average", "setting": "[3]; [8]", "value": 0.53, "unit": "N/mg Hair"}, {"measurement": "Strength N/mg Hair, replicate1", "setting": "[3]; [8]", "value": 0.53, "unit": "N/mg Hair"}, {"measurement": "Strength N/mg Hair, replicate3", "setting": "[3]; [8]", "value": 0.49, "unit": "N/mg Hair"}, {"measurement": "Strength, replicates 1-3", "setting": "[3]; one-step, 5 μg/mL enzyme, pH 6, 200 mM triacetin, 100 mM H2O2, 30 min × 16, listed as HC1121", "value": "2.89 N/mg Hair and 3.16 N/mg Hair and 3.03 N/mg Hair"}, {"measurement": "Strength, average", "setting": "[3]; one-step, 5 μg/mL enzyme, pH 6, 30 min × 16", "value": 3.03, "unit": "N/mg Hair"}, {"measurement": "Strength, average", "setting": "[3]; one-step, 15 μg/mL enzyme, pH 6, 30 min × 16", "value": 2.95, "unit": "N/mg Hair"}, {"measurement": "Strength, replicates 1-3", "setting": "[3]; one-step, 15 μg/mL enzyme, pH 6, 30 min × 16, listed as HC1121", "value": "3.58 N/mg Hair and 2.54 N/mg Hair and 2.72 N/mg Hair"}, {"measurement": "Strength, average", "setting": "[3]; [9]", "value": "1.9 N/mg Hair and 1.86 N/mg Hair"}, {"measurement": "Strength, replicates 1-3", "setting": "[3]; [9]", "value": "1.77 N/mg Hair and 1.86 N/mg Hair and 1.95 N/mg Hair"}, {"measurement": "Strength, average", "setting": "[3]; [10]", "value": "0.3 N/mg Hair and 0.32 N/mg Hair"}, {"measurement": "Strength, replicates 1-3", "setting": "[3]; [10]", "value": "0.31 N/mg Hair and 0.33 N/mg Hair (2×)"}, {"measurement": "hair tensile strength", "setting": "[3]; one-step, 200 mM triacetin, 100 mM H2O2, 8 cycles of 24 hr", "value": 1.2, "unit": "N/mg hair"}, {"measurement": "hair tensile strength", "setting": "[3]; one-step, H2O2 over 300 mM, 8 cycles of 24 hr", "value": "about 0.5 N/mg hair"}, {"measurement": "Strength N/mg Hair, average", "setting": "[3]; [11]", "value": 0.65, "unit": "N/mg Hair"}, {"measurement": "Strength N/mg Hair, replicate1", "setting": "[3]; [11]", "value": 0.59, "unit": "N/mg Hair"}, {"measurement": "Strength N/mg Hair, replicate2", "setting": "[3]; [11]", "value": 0.50, "unit": "N/mg Hair"}, {"measurement": "Strength N/mg Hair, replicate3", "setting": "[3]; [11]", "value": 0.85, "unit": "N/mg Hair"}, {"measurement": "Strength N/mg Hair, average", "setting": "[3]; [12]", "value": 0.82, "unit": "N/mg Hair"}, {"measurement": "Strength N/mg Hair, replicate1", "setting": "[3]; [12]", "value": 0.86, "unit": "N/mg Hair"}, {"measurement": "Strength N/mg Hair, replicate2", "setting": "[3]; [12]", "value": 0.94, "unit": "N/mg Hair"}, {"measurement": "Strength N/mg Hair, replicate3", "setting": "[3]; [12]", "value": 0.66, "unit": "N/mg Hair"}, {"measurement": "Strength N/mg Hair, average", "setting": "[3]; [13]", "value": 0.30, "unit": "N/mg Hair"}, {"measurement": "Strength N/mg Hair, replicate1", "setting": "[3]; [13]", "value": 0.22, "unit": "N/mg Hair"}, {"measurement": "Strength N/mg Hair, replicate2", "setting": "[3]; [13]", "value": 0.34, "unit": "N/mg Hair"}, {"measurement": "Strength N/mg Hair, replicate3", "setting": "[3]; [13]", "value": 0.35, "unit": "N/mg Hair"}]}
